# Reference: the supplement of paper PMC10266784
# B1: library; numbered along this chain (parent)
# chain: MAAAAAAAAEQQSSNGPVKKSMREKAVERRSVNKEHNSNFKAGYIPIDEDRLHKTGLRGRKGNLAICVIILLFILAVINLIITLVIWAVIRIGPNGCDSMEFHESGLLRFKQVSDMGVIHPLYKSTVGGRRNENLVITGNNQPIVFQQGTTKLSVENNKTSITSDIGMQFFDPRTQNILFSTDYETHEFHLPSGVKSLNVQKASTERITSNATSDLNIKVDGRAIVRGNEGVFIMGKTIEFHMGGNMELKAENSIILNGSVMVSTTRLPSSSSGDQLGSGDWVRYKLCMCADGTLFKVQVTSQNMGCQISDNPCGNTH
# Variants of: B1
# Assay: SGCB cell-surface expression functional score (HA stain, bin4 vs bin1, normalised to synonymous) (log10 ratio); higher = more cell-surface SGCB (functional)
# Summary of the method: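 The functional score is a log ratio of variant frequency in the highest versus the lowest intensity bin, expressed as a median over codons and duplicate transductions. Codon-saturation libraries of HA-tagged, YFP-fused human beta-sarcoglycan were transduced by lentivirus at MOI <0.1 into HEK293 cells stably expressing alpha-, gamma- and delta-sarcoglycan, and the cells were stained on ice with Alexa Fluor 647 anti-HA, fixed and sorted into four 5% intensity bins before amplicon sequencing. Synonymous variants were scaled to mean 0, SD 0.5 within each section.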
row,Variant,SGCB cell-surface expression functional score (log10)
1,G139A,-0.13
2,G139Q,-1.77
3,G139Y,-1.89
4,G139N,0.52
5,G139R,-0.98
6,G139K,-1.52
7,G139M,-1.05
8,G139L,-1.18
9,G139V,-1.28
10,G139H,-1.79
11,G139P,-1.13
12,G139E,-0.91
13,G139W,-0.74
14,G139F,-1.58
15,G139D,-0.84
16,G139C,-0.65
17,G139I,-0.91
18,G139S,0.06
19,G139T,-0.23
20,R131T,-0.17
21,R131V,0.31
22,R131L,0.13
23,R131N,0.24
24,R131I,0.65

row,Variant,SGCB cell-surface expression functional score (log10)
1,R131H,-0.12
2,R131M,0.59
3,R131D,0.14
4,R131Y,0.31
5,R131A,0.14
6,R131G,0.16
7,R131W,0.6
8,R131Q,-0.6
9,R131P,-0.13
10,R131C,0.15
11,R131K,0.23
12,R131F,-0.03
13,R131S,-0.09
14,R131E,0.66
15,G128C,-0.21
16,G128V,-0.76
17,G128D,-0.05
18,G128M,0.04
19,G128H,-0.22
20,G128I,0.01
21,G128Q,-0.11
22,G128Y,0.6
23,G128K,-1.35
24,G128T,-0.56

row,Variant,SGCB cell-surface expression functional score (log10)
1,G128E,0.08
2,G128S,0.07
3,G128R,-0.6
4,G128N,0.37
5,G128A,0.14
6,G128W,0.3
7,G128L,0.03
8,G128F,0.6
9,G128P,-1.25
10,R130Q,0.47
11,R130N,-0.47
12,R130G,-0.2
13,R130Y,0.43
14,R130V,-0.41
15,R130E,0.14
16,R130D,-1.07
17,R130L,0.65
18,R130I,0.29
19,R130H,0.08
20,R130A,0.27
21,R130W,-0.57
22,R130K,-0.01
23,R130F,0.13
24,R130M,0.56

row,Variant,SGCB cell-surface expression functional score (log10)
1,R130C,-0.28
2,R130P,0.33
3,R130T,-0.51
4,R130S,-0.4
5,L135R,-0.77
6,L135W,-0.88
7,L135S,-1.11
8,L135M,-0.06
9,L135T,-1.04
10,L135A,-1.13
11,L135N,-1.44
12,L135I,-0.47
13,L135H,-1.28
14,L135G,-1.2
15,L135D,-1.2
16,L135P,-1
17,L135C,-0.83
18,L135F,-0.08
19,L135E,-1.07
20,L135K,-1.3
21,L135V,-0.35
22,L135Y,-0.88
23,L135Q,-1.5
24,N141E,-0.4

row,Variant,SGCB cell-surface expression functional score (log10)
1,N141K,-0.5
2,N141C,0.03
3,N141D,-0.21
4,N141I,-0.7
5,N141G,-0.3
6,N141M,0.71
7,N141R,0.07
8,N141Q,-0.08
9,N141Y,-0.56
10,N141F,-0.33
11,N141P,-0.87
12,N141W,-0.63
13,N141T,-0.25
14,N141S,0.17
15,N141H,-0.24
16,N141L,-0.45
17,N141V,-0.25
18,N141A,-0.39
19,V127G,-0.79
20,V127I,-0.32
21,V127N,-0.94
22,V127P,-0.5
23,V127H,-1.08
24,V127Y,-1.55

row,Variant,SGCB cell-surface expression functional score (log10)
1,V127S,-1.34
2,V127L,-0.04
3,V127D,-1.79
4,V127C,0.53
5,V127W,-1.36
6,V127T,-0.96
7,V127E,-0.65
8,V127Q,-1.97
9,V127M,-0.2
10,V127F,-0.12
11,V127A,-0.57
12,V127K,-1.2
13,V127R,-0.96
14,K124Y,0.18
15,K124W,-0.36
16,K124T,0.31
17,K124V,0.39
18,G129H,-0.43
19,G129P,0.12
20,G129C,-1.01
21,G129R,-1.04
22,G129K,-1.37
23,G129Q,-1.09
24,G129L,-1.15

row,Variant,SGCB cell-surface expression functional score (log10)
1,G129Y,-0.91
2,G129S,0.47
3,G129W,-1.42
4,G129A,-0.41
5,G129D,-0.94
6,G129I,-0.84
7,G129N,-0.81
8,G129M,-0.82
9,G129T,-0.06
10,G129E,-0.9
11,G129V,-0.74
12,G129F,-0.78
13,T138K,-0.25
14,T138H,0.22
15,T138A,-0.51
16,T138M,0.02
17,T138V,0.19
18,T138F,0.14
19,T138G,-0.34
20,T138N,0.54
21,T138Y,-0.33
22,T138S,0.4
23,T138W,0.68
24,T138Q,-0.47

row,Variant,SGCB cell-surface expression functional score (log10)
1,T138L,0.16
2,T138P,-1
3,T138C,-0.1
4,T138R,-0.08
5,T138I,0.11
6,T138E,-0.61
7,T138D,-0.39
8,T126M,0.29
9,T126D,-0.63
10,T126L,-0.13
11,T126V,-0.28
12,T126N,-0.36
13,T126Q,-0.75
14,T126Y,0.74
15,T126C,0.11
16,T126H,0.76
17,T126A,0.13
18,T126S,0.02
19,T126R,-0.36
20,T126I,0.24
21,T126W,0.62
22,T126F,0.32
23,T126E,0.37
24,T126P,-0.31

row,Variant,SGCB cell-surface expression functional score (log10)
1,T126K,-0.52
2,T126G,-0.18
3,N140P,-0.49
4,N140K,-0.48
5,N140A,-0.08
6,N140W,-0.93
7,N140E,0.35
8,N140V,0.16
9,N140R,0.05
10,N140S,-0.38
11,N140M,-0.05
12,N140L,-0.39
13,N140T,-0.19
14,N140Q,-0.33
15,N140H,-0.65
16,N140C,-0.04
17,N140I,-0.12
18,N140Y,-0.05
19,N140D,-0.24
20,N140G,0.06
21,N140F,-0.56
22,Q142C,-0.01
23,Q142A,-0.06
24,Q142F,0.14

row,Variant,SGCB cell-surface expression functional score (log10)
1,Q142D,-0.54
2,Q142H,-0.52
3,Q142G,-0.22
4,Q142E,-0.04
5,N132M,-0.85
6,N132Q,-0.01
7,N132H,0.63
8,N132C,0.33
9,N132S,-0.31
10,N132D,-0.52
11,N132A,0.15
12,N132F,-0.11
13,N132G,0.13
14,N132W,-0.63
15,N132K,-0.36
16,N132P,-1.06
17,N132T,-0.61
18,N132L,-0.16
19,N132E,0.11
20,N132R,-0.38
21,N132Y,0.44
22,N132I,-0.22
23,N132V,-0.38
24,V136A,0.05

row,Variant,SGCB cell-surface expression functional score (log10)
1,V136Y,0.15
2,V136H,-0.22
3,V136G,-0.58
4,V136P,-1.03
5,V136S,-0.3
6,V136M,-0.57
7,V136E,0.05
8,V136Q,0.22
9,V136D,-0.33
10,V136N,-0.01
11,V136R,-0.57
12,V136L,0.17
13,V136F,0.49
14,V136C,-0.25
15,V136I,0.32
16,V136K,0.36
17,V136W,0.57
18,V136T,-0.51
19,I137P,-1.44
20,I137W,-0.8
21,I137T,-0.7
22,I137F,-0.01
23,I137H,-1.24
24,I137E,-0.97

row,Variant,SGCB cell-surface expression functional score (log10)
1,I137R,-1.41
2,I137D,-1.25
3,I137V,-0.52
4,I137M,0.54
5,I137K,-1.21
6,I137S,-1.35
7,I137N,-1.72
8,I137G,-1.08
9,I137A,-1.07
10,I137C,-1.42
11,I137Y,-1.36
12,I137Q,-1.71
13,I137L,-0.12
14,S125C,0.13
15,S125L,-1.2
16,S125M,0.21
17,S125G,0.56
18,S125D,0.46
19,S125E,-0.08
20,S125I,-1.02
21,S125H,-0.37
22,S125V,-0.88
23,S125Q,-0.7
24,S125K,-0.93

row,Variant,SGCB cell-surface expression functional score (log10)
1,S125A,-0.08
2,S125P,-0.99
3,S125T,-0.3
4,S125W,-0.51
5,S125N,-0.2
6,S125Y,-0.79
7,S125F,-0.45
8,S125R,-1.09
9,E133Q,-0.09
10,E133V,-0.31
11,E133A,-0.35
12,E133C,0.05
13,E133G,-0.14
14,E133L,-0.3
15,E133Y,-0.25
16,E133I,-0.47
17,E133F,-0.38
18,E133P,-1
19,E133K,-0.35
20,E133D,0.54
21,E133T,0.08
22,E133M,-0.21
23,E133W,0.5
24,E133H,0.17

row,Variant,SGCB cell-surface expression functional score (log10)
1,E133N,0.04
2,E133S,0.19
3,E133R,-0.14
4,N134K,0.09
5,N134T,-0.26
6,N134M,-0.26
7,N134E,-0.18
8,N134C,-0.25
9,N134V,-0.29
10,N134L,-0.84
11,N134Y,-0.82
12,N134Q,-0.54
13,N134W,-0.71
14,N134S,0.08
15,N134H,0.34
16,N134G,-0.09
17,N134F,-0.37
18,N134I,-0.65
19,N134P,-0.03
20,N134D,0.11
21,N134A,0.39
22,N134R,-0.6
